B1: LM18 nanobody (VHH)
VHH: EVQLQESGGGLVQPGGSLRLSCAASGFTFSSYALGWYRQAPGKEREWVCAISGSGGSTYYADSVKGRFTCSRDNSKNTLYLQMNSLKPEDTAVYYCARVYQFYGARDYGYPYDFDYWGQGTQVTVSS
B2: Nb-C2-136 nanobody (VHH)
VHH: EVQLQESGGGLVQPGGSLRLSCAASGFTFSSYAMGWYRQAPGKEREWVCAISGSGGSTYYADSVKGRFTCSRDNSKNTLYLQMNSLKPEDTAVYYCARYGGPYDPTDSTYAFDYWGQGTQVTVSS
B3: Nb-C4-240 nanobody (VHH)
VHH: EVQLQESGGGLVQPGGSLRLSCAASGFTFSSYAMGWYRQAPGKEREWVCAISGSGGSTYYADSVKGRFTCSRDNSKNTLYLQMNSLKPEDTAVYYCARVVSYYDQTGFVYWQSYDYWGQGTQVTVSS
B4: Nb-C4-225 nanobody (VHH)
VHH: EVQLQESGGGLVQPGGSLRLSCAASGFTFSSYAMGWYRQAPGKEREWVCAISGSGGSTYYADSVKGRFTCSRDNSKNTLYLQMNSLKPEDTAVYYCARGSFYYTYGGSVGFDAFDYWGQGTQVTVSS
B5: Nb-C4-255 nanobody (VHH)
VHH: EVQLQESGGGLVQPGGSLRLSCAASGFTFSSYAMGWYRQAPGKEREWVCAISGSGGSTYYADSVKGRFTCSRDNSKNTLYLQMNSLKPEDTAVYYCARQAWYYSPYGGPEFEAFDYWGQGTQVTVSS

Experiments:
[1] = molecular target: T1, SARS-CoV-2 receptor-binding domain (RBD) (SARS-CoV-2, UniProt P0DTC2); assay: SPR
[2] = molecular target: T1, SARS-CoV-2 receptor-binding domain (RBD); assay: SPR; remark: listed apart in the source

| Binder | Kd [1] | koff [2] |
| --- | --- | --- |
| B1 | 391 nM | 0.0944 s⁻¹ |
| B2 | 382 nM | 0.032 s⁻¹ |
| B3 | 1060 nM | 0.969 s⁻¹ |
| B4 | 143 nM | 0.0057 s⁻¹ |
| B5 | 2950 nM | 0.295 s⁻¹ |

Source: article PMC10268213 (2023)
